From publication PMC10748421

Biological target: full-length recombinant human BAX (human) (UniProt Q07812)
Experiment: not stated; data not shown; BAX stocks at high concentrations

full-length recombinant human BAX (from UniProt Q07812 1-192) (natural protein)
stoichiometry N: 2
